These are literature values, as cited in PMC3867676.

The target in one series is RANKL (Homo sapiens) (UniProt O14788).
A further series addresses TRAIL (Homo sapiens) (UniProt P50591).
Chain of UniProt P50591 (P50591 whole entry): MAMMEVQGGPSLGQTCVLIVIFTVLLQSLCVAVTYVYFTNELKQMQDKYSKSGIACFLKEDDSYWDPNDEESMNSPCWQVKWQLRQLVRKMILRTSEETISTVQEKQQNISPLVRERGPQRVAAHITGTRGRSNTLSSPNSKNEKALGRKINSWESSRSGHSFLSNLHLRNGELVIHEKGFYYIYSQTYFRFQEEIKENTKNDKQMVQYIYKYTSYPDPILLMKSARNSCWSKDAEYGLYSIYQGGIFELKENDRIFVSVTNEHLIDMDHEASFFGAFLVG

Chain of UniProt O14788 (O14788 140-317): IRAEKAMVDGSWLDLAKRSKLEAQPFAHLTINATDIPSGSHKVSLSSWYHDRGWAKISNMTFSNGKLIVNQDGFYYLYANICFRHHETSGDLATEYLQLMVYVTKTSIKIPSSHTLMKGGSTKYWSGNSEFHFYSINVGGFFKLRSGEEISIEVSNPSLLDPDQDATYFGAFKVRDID

The term Kd denotes the constant that tells how readily two partners part at equilibrium. Consider OPG (from UniProt O00300), for which the Kd with RANKL (Homo sapiens) was 23 nM; in the series with TRAIL (Homo sapiens) it was 45 nM.
